Source: PMC10721843

Target: T1, Human full-length TOP2B (topoisomerase II beta) (human), Q02880
T1 chain: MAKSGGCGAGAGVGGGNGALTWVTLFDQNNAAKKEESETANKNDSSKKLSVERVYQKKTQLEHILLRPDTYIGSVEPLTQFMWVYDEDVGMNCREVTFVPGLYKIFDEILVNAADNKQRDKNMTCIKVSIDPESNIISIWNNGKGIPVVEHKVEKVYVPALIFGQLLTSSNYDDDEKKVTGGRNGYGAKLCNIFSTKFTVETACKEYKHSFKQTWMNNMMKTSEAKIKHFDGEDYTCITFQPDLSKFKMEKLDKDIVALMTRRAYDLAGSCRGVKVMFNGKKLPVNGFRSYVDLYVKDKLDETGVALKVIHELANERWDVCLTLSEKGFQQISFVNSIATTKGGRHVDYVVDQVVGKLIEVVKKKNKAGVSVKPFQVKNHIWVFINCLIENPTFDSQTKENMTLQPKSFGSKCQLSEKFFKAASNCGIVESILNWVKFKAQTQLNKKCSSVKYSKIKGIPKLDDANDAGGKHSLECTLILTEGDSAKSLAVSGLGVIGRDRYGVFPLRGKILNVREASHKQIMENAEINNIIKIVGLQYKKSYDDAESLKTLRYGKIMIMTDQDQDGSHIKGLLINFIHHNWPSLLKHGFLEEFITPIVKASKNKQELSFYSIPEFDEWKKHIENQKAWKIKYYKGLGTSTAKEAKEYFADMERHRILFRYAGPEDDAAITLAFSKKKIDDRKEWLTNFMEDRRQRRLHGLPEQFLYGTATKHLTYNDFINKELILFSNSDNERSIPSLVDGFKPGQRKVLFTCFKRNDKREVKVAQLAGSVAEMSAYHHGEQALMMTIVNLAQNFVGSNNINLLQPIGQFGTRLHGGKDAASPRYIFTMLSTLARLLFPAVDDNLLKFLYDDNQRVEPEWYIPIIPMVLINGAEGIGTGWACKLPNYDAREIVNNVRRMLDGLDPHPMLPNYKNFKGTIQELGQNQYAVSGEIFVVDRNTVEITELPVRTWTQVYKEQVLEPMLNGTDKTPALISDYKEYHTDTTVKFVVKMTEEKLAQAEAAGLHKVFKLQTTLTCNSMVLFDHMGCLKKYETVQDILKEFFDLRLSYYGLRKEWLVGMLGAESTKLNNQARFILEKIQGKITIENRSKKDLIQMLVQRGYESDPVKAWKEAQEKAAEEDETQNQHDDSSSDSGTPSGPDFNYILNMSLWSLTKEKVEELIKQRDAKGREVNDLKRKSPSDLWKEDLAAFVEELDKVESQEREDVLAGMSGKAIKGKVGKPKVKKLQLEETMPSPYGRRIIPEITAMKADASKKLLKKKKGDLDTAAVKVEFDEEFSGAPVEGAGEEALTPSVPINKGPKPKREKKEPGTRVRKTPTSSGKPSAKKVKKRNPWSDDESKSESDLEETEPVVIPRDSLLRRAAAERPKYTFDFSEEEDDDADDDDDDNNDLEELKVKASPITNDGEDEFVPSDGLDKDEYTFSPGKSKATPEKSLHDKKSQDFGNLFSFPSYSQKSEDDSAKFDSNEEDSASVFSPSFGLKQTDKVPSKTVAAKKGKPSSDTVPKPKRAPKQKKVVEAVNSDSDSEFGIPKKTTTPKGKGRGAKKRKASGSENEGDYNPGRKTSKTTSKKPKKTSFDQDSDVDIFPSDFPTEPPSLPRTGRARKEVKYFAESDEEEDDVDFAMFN
Assay: cryo-EM structure; 8.3 uM TOP2B, 16.7 uM EGR1 TSS dsDNA (50 bp, -30 to +20) and 1.67 uM etoposide in 20 mM HEPES pH 8.0, 5 mM KCl, 5 mM MgCl2, 0.5 mM ATP; C2 symmetry imposed in 3D refinement (also reconstructed without it)
Settings: remark: other sources report otherwise

stoichiometry N: 2
B1: Human full-length TOP2B (topoisomerase II beta), Q02880 1-1626 (enzyme)
chain: MAKSGGCGAGAGVGGGNGALTWVTLFDQNNAAKKEESETANKNDSSKKLSVERVYQKKTQLEHILLRPDTYIGSVEPLTQFMWVYDEDVGMNCREVTFVPGLYKIFDEILVNAADNKQRDKNMTCIKVSIDPESNIISIWNNGKGIPVVEHKVEKVYVPALIFGQLLTSSNYDDDEKKVTGGRNGYGAKLCNIFSTKFTVETACKEYKHSFKQTWMNNMMKTSEAKIKHFDGEDYTCITFQPDLSKFKMEKLDKDIVALMTRRAYDLAGSCRGVKVMFNGKKLPVNGFRSYVDLYVKDKLDETGVALKVIHELANERWDVCLTLSEKGFQQISFVNSIATTKGGRHVDYVVDQVVGKLIEVVKKKNKAGVSVKPFQVKNHIWVFINCLIENPTFDSQTKENMTLQPKSFGSKCQLSEKFFKAASNCGIVESILNWVKFKAQTQLNKKCSSVKYSKIKGIPKLDDANDAGGKHSLECTLILTEGDSAKSLAVSGLGVIGRDRYGVFPLRGKILNVREASHKQIMENAEINNIIKIVGLQYKKSYDDAESLKTLRYGKIMIMTDQDQDGSHIKGLLINFIHHNWPSLLKHGFLEEFITPIVKASKNKQELSFYSIPEFDEWKKHIENQKAWKIKYYKGLGTSTAKEAKEYFADMERHRILFRYAGPEDDAAITLAFSKKKIDDRKEWLTNFMEDRRQRRLHGLPEQFLYGTATKHLTYNDFINKELILFSNSDNERSIPSLVDGFKPGQRKVLFTCFKRNDKREVKVAQLAGSVAEMSAYHHGEQALMMTIVNLAQNFVGSNNINLLQPIGQFGTRLHGGKDAASPRYIFTMLSTLARLLFPAVDDNLLKFLYDDNQRVEPEWYIPIIPMVLINGAEGIGTGWACKLPNYDAREIVNNVRRMLDGLDPHPMLPNYKNFKGTIQELGQNQYAVSGEIFVVDRNTVEITELPVRTWTQVYKEQVLEPMLNGTDKTPALISDYKEYHTDTTVKFVVKMTEEKLAQAEAAGLHKVFKLQTTLTCNSMVLFDHMGCLKKYETVQDILKEFFDLRLSYYGLRKEWLVGMLGAESTKLNNQARFILEKIQGKITIENRSKKDLIQMLVQRGYESDPVKAWKEAQEKAAEEDETQNQHDDSSSDSGTPSGPDFNYILNMSLWSLTKEKVEELIKQRDAKGREVNDLKRKSPSDLWKEDLAAFVEELDKVESQEREDVLAGMSGKAIKGKVGKPKVKKLQLEETMPSPYGRRIIPEITAMKADASKKLLKKKKGDLDTAAVKVEFDEEFSGAPVEGAGEEALTPSVPINKGPKPKREKKEPGTRVRKTPTSSGKPSAKKVKKRNPWSDDESKSESDLEETEPVVIPRDSLLRRAAAERPKYTFDFSEEEDDDADDDDDDNNDLEELKVKASPITNDGEDEFVPSDGLDKDEYTFSPGKSKATPEKSLHDKKSQDFGNLFSFPSYSQKSEDDSAKFDSNEEDSASVFSPSFGLKQTDKVPSKTVAAKKGKPSSDTVPKPKRAPKQKKVVEAVNSDSDSEFGIPKKTTTPKGKGRGAKKRKASGSENEGDYNPGRKTSKTTSKKPKKTSFDQDSDVDIFPSDFPTEPPSLPRTGRARKEVKYFAESDEEEDDVDFAMFN
